Test results as given in patent US20260241049A1, “Radiopharmaceutical Compositions Targeting Glypican-3 and Uses Thereof” (RayzeBio, Inc., priority 2023, published 2026).
Starred links: 1 amine or outer side, 2 acyl side, 3 side chain; linkers in the order of their positions; H or OH if unused. Positions of bridges follow the written chain, without caps; N, C: chain ends. Non-standard residues stand in square brackets, D forms with d. Residues, ends and D or L forms follow the SMILES beside them. Groups on a side chain read outwards from the residue. *: point of attachment. DOTA‑Lu = DOTA-lutetium(175) amide on the side-chain amine, O=C([O-])CN1CCN(CC(=O)[O-])CCN(CC(=O)*)CCN(CC(=O)[O-])CC1.[175Lu+3]; Phe(4-(1-Me-pyrazol-4-yl)) = Cn1cc(-c2ccc(C[C@H](N)C(=O)O)cc2)cn1; NMeAla(isoquinolin-7-yl) = CN[C@@H](Cc1ccc2ccncc2c1)C(=O)O; Phe(4-CH2COOH) = N[C@@H](Cc1ccc(CC(=O)O)cc1)C(=O)O; X2 = CN([C@@H](CC1CCN(CC(=O)O)CC1)C(=O)[*:2])[*:1]; 3Pal(6-Ph) = N[C@@H](Cc1ccc(-c2ccccc2)nc1)C(=O)O; Phe(4-COOH) = N[C@@H](Cc1ccc(C(=O)O)cc1)C(=O)O; Piperazinyl(4-CH2COOH) = O=C(O)CN1CCN(*)CC1; NMe2Nal = CN[C@@H](Cc1ccc2ccccc2c1)C(=O)O; AEF = NCCOc1ccc(C[C@H](N)C(=O)O)cc1; NMeI = CC[C@H](C)[C@H](NC)C(=O)O; NMeQ = CN[C@@H](CCC(N)=O)C(=O)O; NMeL = CN[C@@H](CC(C)C)C(=O)O; NMehSer = CN[C@@H](CCO)C(=O)O; NMeK = CN[C@@H](CCCCN)C(=O)O; NMeDap = CN[C@@H](CN)C(=O)O; NMeC = CN[C@@H](CS)C(=O)O; NMeA = CN[C@@H](C)C(=O)O; CO = O=C([*:1])[*:2]

B1: Macrocyclic peptide of Example 2-5 (SEQ ID No. 8) (peptide)
peptide: {CH2CO}-[NMeQ][NMeQ]D[NMeQ][Phe(4-COOH)]II[Phe(4-COOH)][NMe2Nal]G[Phe(4-(1-Me-pyrazol-4-yl))][NMeC]-NH2
modifications: thioether N-12
SMILES: CC[C@H](C)[C@@H]1NC(=O)[C@H](Cc2ccc(C(=O)O)cc2)NC(=O)[C@H](CCC(N)=O)N(C)C(=O)[C@H](CC(=O)O)NC(=O)[C@H](CCC(N)=O)N(C)C(=O)[C@H](CCC(N)=O)N(C)C(=O)CSC[C@@H](C(N)=O)N(C)C(=O)[C@H](Cc2ccc(-c3cnn(C)c3)cc2)NC(=O)CNC(=O)[C@H](Cc2ccc3ccccc3c2)N(C)C(=O)[C@H](Cc2ccc(C(=O)O)cc2)NC(=O)[C@H]([C@@H](C)CC)NC1=O
B2: Macrocyclic peptide of Example 2-6 (SEQ ID No. 9) (peptide)
peptide: {CH2CO}-[NMeA][NMeQ]D[NMeQ][Phe(4-COOH)]II[Phe(4-COOH)][NMe2Nal]G[Phe(4-(1-Me-pyrazol-4-yl))][NMeC]-NH2
modifications: thioether N-12
SMILES: CC[C@H](C)[C@@H]1NC(=O)[C@H](Cc2ccc(C(=O)O)cc2)NC(=O)[C@H](CCC(N)=O)N(C)C(=O)[C@H](CC(=O)O)NC(=O)[C@H](CCC(N)=O)N(C)C(=O)[C@H](C)N(C)C(=O)CSC[C@@H](C(N)=O)N(C)C(=O)[C@H](Cc2ccc(-c3cnn(C)c3)cc2)NC(=O)CNC(=O)[C@H](Cc2ccc3ccccc3c2)N(C)C(=O)[C@H](Cc2ccc(C(=O)O)cc2)NC(=O)[C@H]([C@@H](C)CC)NC1=O
B3: Macrocyclic peptide of Example 2-7 (SEQ ID No. 10) (peptide)
peptide: {CH2CO}-[NMeQ][NMeL]D[NMeQ][Phe(4-COOH)]II[Phe(4-COOH)][NMe2Nal]G[Phe(4-(1-Me-pyrazol-4-yl))][NMeC]-NH2
modifications: thioether N-12
SMILES: CC[C@H](C)[C@@H]1NC(=O)[C@H](Cc2ccc(C(=O)O)cc2)NC(=O)[C@H](CCC(N)=O)N(C)C(=O)[C@H](CC(=O)O)NC(=O)[C@H](CC(C)C)N(C)C(=O)[C@H](CCC(N)=O)N(C)C(=O)CSC[C@@H](C(N)=O)N(C)C(=O)[C@H](Cc2ccc(-c3cnn(C)c3)cc2)NC(=O)CNC(=O)[C@H](Cc2ccc3ccccc3c2)N(C)C(=O)[C@H](Cc2ccc(C(=O)O)cc2)NC(=O)[C@H]([C@@H](C)CC)NC1=O
B4: Macrocyclic peptide of Example 2-2 (SEQ ID No. 3) (peptide)
peptide: {CH2CO}-[NMeK](Ac)[NMeI]D[NMeQ][Phe(4-COOH)]II[Phe(4-COOH)][NMe2Nal]G[Phe(4-(1-Me-pyrazol-4-yl))][NMeC]-NH2
modifications: thioether N-12
SMILES: CC[C@H](C)[C@@H]1NC(=O)[C@H](Cc2ccc(C(=O)O)cc2)NC(=O)[C@H](CCC(N)=O)N(C)C(=O)[C@H](CC(=O)O)NC(=O)[C@H]([C@@H](C)CC)N(C)C(=O)[C@H](CCCCNC(C)=O)N(C)C(=O)CSC[C@@H](C(N)=O)N(C)C(=O)[C@H](Cc2ccc(-c3cnn(C)c3)cc2)NC(=O)CNC(=O)[C@H](Cc2ccc3ccccc3c2)N(C)C(=O)[C@H](Cc2ccc(C(=O)O)cc2)NC(=O)[C@H]([C@@H](C)CC)NC1=O
B5: Lu-C-1 (peptide)
peptide: Ac-[NMeK](DOTA‑Lu)[NMeI]D[NMeQ][Phe(4-COOH)]IIY[NMeAla(isoquinolin-7-yl)]G[3Pal(6-Ph)][NMeC]-NH2
modifications: bridge N-12; not fully specified (bridges); printed as MeK(DOTA-Lu)-MeI-D-MeQ-F4COO-I-I-Y-MeNal27N-G-3Py6Ph-MeC-NH2
B6: Macrocyclic peptide of Example 2-1 (SEQ ID No. 2) (peptide)
peptide: {CH2CO}-[NMeK](Ac)[NMeI]D[NMeQ][Phe(4-COOH)]II[Phe(4-COOH)][NMe2Nal]G[3Pal(6-Ph)][NMeC]-NH2
modifications: thioether N-12
SMILES: CC[C@H](C)[C@@H]1NC(=O)[C@H](Cc2ccc(C(=O)O)cc2)NC(=O)[C@H](CCC(N)=O)N(C)C(=O)[C@H](CC(=O)O)NC(=O)[C@H]([C@@H](C)CC)N(C)C(=O)[C@H](CCCCNC(C)=O)N(C)C(=O)CSC[C@@H](C(N)=O)N(C)C(=O)[C@H](Cc2ccc(-c3ccccc3)nc2)NC(=O)CNC(=O)[C@H](Cc2ccc3ccccc3c2)N(C)C(=O)[C@H](Cc2ccc(C(=O)O)cc2)NC(=O)[C@H]([C@@H](C)CC)NC1=O

What follows are molecules tested against T1, human Glypican3 (R&D systems, catalog number: 2119-GP) (human, UniProt P51654 25-559, limits assumed) (assay: SPR (Biacore T200), Method B-1: human Glypican3 amine-coupled to CM3 chip, peptide as analyte). Settings: not given.
T1 construct: Bought recombinant protein, amine-coupled to the chip in Method B-1; also called GPC3; hGPC3
Procedure: A CM3 sensor chip (Cytiva) was inserted into a Biacore T200 (Cytiva), primed three times with a running buffer: HBS-P+, pH 7.4 (Cytiva), and equilibrated at a flow rate of 30 μL/min. Ligand immobilization was performed at a flow rate of 10 μL/min. 50 μL each of 60 mM EDC solution (Cytiva) and 650 mM NHS solution (Cytiva) were mixed, and then reacted at a flow rate of 10 μL/min for 420 seconds, 150 μL of 0.2 μM human Glypican3 (R&D systems, catalog number: 2119-GP) solution which was prepared by diluting with 10 mM acetic acid solution (pH 5.0), was reacted at a flow rate of 10 μL/min for 420 seconds, and Glypican3 was immobilized on the CM3 sensor chip. After immobilization, 1.0 M ethanolamine aqueous solution (Cytiva) was allowed to react for 420 seconds at a flow rate of 10 μL/min for capping. A peptide lysate prepared to 10 mM in DMSO solution was diluted with running buffer to a final concentration of 10 μM peptide lysate. […] Using the above samples, peptide kinetics for Glypican3 was obtained by SPR measurement. Kinetics evaluation of Glypican3 was performed by SPR measurements at a flow rate of 10 μL/min, setting the association time to 120 seconds and the disassociation time to 600 seconds.
(§1) The obtained data by Method B-1, Method B-2, Method B-3 and Method B-4 were analyzed by follow. Single Cycle Kinetics was used as the kinetics evaluation model, and curve fitting was performed using Biacore T200 Evaluation Software Version 3.0 (Cytiva).

Row | Kd | Molecule
1 | 2.6 nM | B1
2 | 2.7 nM | B2
3 | 6.8 nM | B3
4 | 1.5 nM | B4
5 | 0.29 nM | B5
6 | 0.5 nM | B6

The molecules below were run against Human Glypican3-Fc (Homo sapiens, UniProt P51654) (assay: SPR binding to Glypican-3, Method B-3 (Glypican3-Fc captured on Protein A chip, 5-point dilution series)). Settings: SPR method B-3.
Procedure: A Protein A sensor chip (Cytiva) was inserted into a Biacore T200 (Cytiva), priming was performed three times with a running buffer: HBS-P+, pH 7.4 (Cytiva), and equilibration was carried out at a flow rate of 30 μL/min. Glypican3-Fc was allowed to react for 60 seconds at a flow rate of 10 μL/min. After capturing human Glypican3-Fe, a peptide solution prepared to 10 mM in DMSO solution was diluted with a running buffer to a final concentration of 10 μM. After that, 5 serial dilution series (100 nM, 50 nM, 25 nM, 10 nM, 5 nM) of peptide solutions were prepared. Using the above samples, peptide kinetics for Glypican3 was obtained by SPR measurement. Kinetics evaluation of Glypican3 was performed by SPR measurements at a flow rate of 10 LL/min, setting the association time to 120 seconds and the disassociation time to 600 seconds.
as §1

Row | Kd | Molecule
7 | 6.6 nM | CC[C@H](C)[C@@H]1NC(=O)[C@H]([C@@H](C)OC)NC(=O)[C@H](Cc2ccc(NCC(=O)O)nc2)NC(=O)[C@H](CNC(=O)N2CCN(CC(=O)O)CC2)N(C)C(=O)[C@H](CC(=O)O)NC(=O)[C@H](CCCCNC(=O)N2CCN(CC(=O)O)CC2)N(C)C(=O)[C@H](CCCCN)N(C)C(=O)CSC[C@@H](C(N)=O)N(C)C(=O)[C@H](Cc2ccc(-c3ccccc3)nc2)NC(=O)CNC(=O)[C@H](Cc2ccc3ccncc3c2)N(C)C(=O)[C@H](Cc2ccc(OCC(=O)O)cc2)NC1=O [Conjugate 2-30]
8 | 1 nM | CC[C@H](C)[C@@H]1NC(=O)[C@H]([C@@H](C)OC)NC(=O)[C@H](Cc2ccc(C(=O)O)cc2)NC(=O)[C@H](CNC(=O)N2CCN(CC(=O)O)CC2)N(C)C(=O)[C@H](CC(=O)O)NC(=O)[C@H](CCOC)N(C)C(=O)[C@H](CNC(=O)N2CCN(CC(=O)O)CC2)N(C)C(=O)CSC[C@@H](C(N)=O)N(C)C(=O)[C@H](Cc2ccc(-c3ccccc3)nc2)NC(=O)CNC(=O)[C@H](Cc2ccc3ccncc3c2)N(C)C(=O)[C@H](Cc2ccc(OCCN)cc2)NC1=O [Conjugate 2-37] ({CH2CO}-[NMeDap]([CO-Piperazinyl(4-CH2COOH)])[NMehSer](Me)D[NMeDap]([CO-Piperazinyl(4-CH2COOH)])[Phe(4-COOH)]T(Me)I[AEF][NMeAla(isoquinolin-7-yl)]G[3Pal(6-Ph)][NMeC]-NH2; thioether N-12 (inferred))
9 | 2.5 nM | CC[C@H](C)[C@@H]1NC(=O)[C@H]([C@@H](C)OC)NC(=O)[C@H](Cc2ccc(C(=O)O)cc2)NC(=O)[C@H](CC2CCN(CC(=O)O)CC2)N(C)C(=O)[C@H](CC(=O)O)NC(=O)[C@H](CCC(N)=O)N(C)C(=O)[C@H](CCCCN)N(C)C(=O)CSC[C@@H](C(N)=O)N(C)C(=O)[C@H](Cc2ccc(-c3cnn(C)c3)cc2)NC(=O)CNC(=O)[C@H](Cc2ccc3ccccc3c2)N(C)C(=O)[C@H](Cc2ccc(CC(=O)O)cc2)NC1=O [Conjugate 2-51] ({CH2CO}-[NMeK][NMeQ]D[X2][Phe(4-COOH)]T(Me)I[Phe(4-CH2COOH)][NMe2Nal]G[Phe(4-(1-Me-pyrazol-4-yl))][NMeC]-NH2; thioether N-12)
10 | 0.3 nM | CC[C@H](C)[C@@H]1NC(=O)[C@H](Cc2ccc(C(=O)O)cc2)NC(=O)[C@H](CCC(N)=O)N(C)C(=O)[C@H](CC(=O)O)NC(=O)[C@H]([C@@H](C)CC)N(C)C(=O)[C@H](CCCCNC(C)=O)N(C)C(=O)CSC[C@@H](C(N)=O)N(C)C(=O)[C@H](Cc2ccc(-c3ccccc3)nc2)NC(=O)CNC(=O)[C@H](Cc2ccc3ccncc3c2)N(C)C(=O)[C@H](Cc2ccc(O)cc2)NC(=O)[C@H]([C@@H](C)CC)NC1=O [Conjugate 2-4] ({CH2CO}-[NMeK](Ac)[NMeI]D[NMeQ][Phe(4-COOH)]IIY[NMeAla(isoquinolin-7-yl)]G[3Pal(6-Ph)][NMeC]-NH2; thioether N-12)
11 | 0.2 nM | CC[C@H](C)[C@@H]1NC(=O)[C@H](Cc2ccc(C(=O)O)cc2)NC(=O)[C@H](CCC(N)=O)N(C)C(=O)[C@H](CCC(N)=O)NC(=O)[C@H]([C@@H](C)CC)N(C)C(=O)[C@H](CCCCN)N(C)C(=O)CSC[C@@H](C(N)=O)N(C)C(=O)[C@H](Cc2ccc(-c3cnn(C)c3)cc2)NC(=O)CNC(=O)[C@H](Cc2ccc3ccccc3c2)N(C)C(=O)[C@H](Cc2ccc(C(=O)O)cc2)NC(=O)[C@H]([C@@H](C)CC)NC1=O [Conjugate 2-46] ({CH2CO}-[NMeK][NMeI]Q[NMeQ][Phe(4-COOH)]II[Phe(4-COOH)][NMe2Nal]G[Phe(4-(1-Me-pyrazol-4-yl))][NMeC]-NH2; thioether N-12)
12 | 0.23 nM | CC[C@H](C)[C@@H]1NC(=O)[C@H]([C@@H](C)OC)NC(=O)[C@H](Cc2ccc(C(=O)O)cc2)NC(=O)[C@H](CCC(N)=O)N(C)C(=O)[C@H](CC(=O)O)NC(=O)[C@H]([C@@H](C)CC)N(C)C(=O)[C@H](CCCCN)N(C)C(=O)CSC[C@@H](C(N)=O)N(C)C(=O)[C@H](Cc2ccc(-c3ccccc3)nc2)NC(=O)CNC(=O)[C@H](Cc2ccc3ccncc3c2)N(C)C(=O)[C@H](Cc2ccc(O)cc2)NC1=O [Conjugate 2-60] ({CH2CO}-[NMeK][NMeI]D[NMeQ][Phe(4-COOH)]T(Me)IY[NMeAla(isoquinolin-7-yl)]G[3Pal(6-Ph)][NMeC]-NH2; thioether N-12)
